Columns and labels:
[1] = molecular target: T1, wild type soluble Fas ligand (WT-sFasL), long form, amino acids 103 to 281 (human, UniProt P48023 103-281); assay: ELISA; direct binding: wells coated with recombinant human soluble Fas, 5 ug/ml; serial 3-fold dilutions of WT or mut-sFasL, 2 hours; bound sFasL detected with a polyclonal anti-human FasL antibody; conditions: both partners purified
T1 construct: human Fas ligand (FasL, CD178), soluble long form, amino acids 103 to 281 of the 281 amino acid protein; cloned in pSecTag/FRT/V5-His-TOPO with stop codons, so the V5-His tag is not expressed ('native form'); Secreted from the pSecTag vector; the oligomeric state was not measured here; also called wild type sFasL; long form of sFasL
T1 sequence (looked up): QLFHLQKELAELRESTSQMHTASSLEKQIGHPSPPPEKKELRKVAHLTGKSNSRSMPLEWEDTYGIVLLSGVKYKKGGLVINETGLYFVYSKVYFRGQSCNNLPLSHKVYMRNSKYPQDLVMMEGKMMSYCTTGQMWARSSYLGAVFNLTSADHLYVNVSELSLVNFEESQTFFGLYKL

[2] = molecular target: T2, biotinylated wild type soluble Fas ligand (biotinylated WT-sFasL) (human, UniProt P48023 103-281, biotin (EZ-Link Sulfo-NHS-LC-Biotin), sites not stated); assay: ELISA; competition: wells coated with recombinant human soluble Fas (250 ng/ml); biotinylated WT sFasL (70 ng/ml) mixed with serial 3-fold dilutions of WT or 8-site mutated sFasL, 2 hours; biotin detected with HRP-streptavidin; conditions: both partners purified
T2 construct: human Fas ligand (FasL, CD178), soluble long form, amino acids 103 to 281; the same protein as m1, biotinylated after purification; Same construct as m1, chemically biotinylated
T2 sequence (looked up): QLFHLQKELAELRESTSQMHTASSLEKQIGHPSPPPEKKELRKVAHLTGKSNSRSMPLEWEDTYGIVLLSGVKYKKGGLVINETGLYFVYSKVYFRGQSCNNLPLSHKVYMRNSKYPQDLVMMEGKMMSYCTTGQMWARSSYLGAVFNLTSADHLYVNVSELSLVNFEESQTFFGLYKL

binding result [1]: binds | binding result [2]: binds
B1: recombinant human soluble Fas receptor (receptor, UniProt P25445 26-173, looked up)
chain: QVTDINSKGLELRKTVTTVETQNLEGLHHDGQFCHKPCPPGERKARDCTVNGDEPDCVPCQEGKEYTDKAHFSSKCRRCRLCDEGHGLEVEINCTRTQNTKCRCKPNFFCNSTVCEHCDPCTKCEHGIIKECTLTSNTKCKEEGSRSN
notes: human Fas (CD95), recombinant soluble receptor from PeproTech; No catalogue number is printed; also called recombinant human Fas; CD95; source: bought: PeproTech

From paper PMC8211282, “The bioactivity of soluble Fas ligand is modulated by key amino acids of its stalk region” (PLoS ONE, 2021)
